Test results as given in US20170022287A1 (Chugai, published 2017).

Columns and labels:
[1] = biological target: full-length human CD137-Fc fusion protein (human); experiment: ELISA, coated CD137-Fc protein 2 µg/mL, antibody 10 or 5 µg/mL; absorbance 620 nm divided by that of the uncoated well
Description: (§1) Fragmented human CD137-Fc fusion proteins were diluted to 2 μg/mL in an aqueous sodium carbonate solution adjusted to pH9.6. Fifty μL of a diluted fragmented human CD137-Fc fusion protein was added individually to each well of a Nunc MaxiSorp flat-bottom 96 well plate (Nunc). This was allowed to stand at 4° C. overnight or longer, and then the plate was allowed to stand at room temperature for one hour so that the plate has the same temperature as the room temperature. The solution containing the fragmented human CD137-Fc fusion protein was removed by tilting, and each well was washed three times with 300 μL of Wash buffer (TBS containing 0.1% Tween20, TaKaRa). Next, 150 μL of blocking buffer (TBS containing 2% BSA) was added to each well, and this was allowed to stand for one hour or more. The blocking buffer was removed by tilting, and each well was washed three times with Wash Buffer in a similar manner to an earlier step. Then, 50 μL of an antibody solution prepared in advance by dilution with TBS to 10 μg/mL or 5 μg/mL was added to each well. This was subjected to a speed of 600 rpm or so for one hour at room temperature to bind the antibody to the immobilized antigen. […] 100 μL of a secondary antibody solution produced by 1000-fold dilution with TBS containing 0.1% Tween20 was added to each well. For the secondary antibody, ANTIBODY ALKALINE PHOSPHATASE CONJUGATE HUMAN IMMUNOGLOBULIN ABSORBED Goat Anti-Human Kappa Alkaline Phosphate from BIOSOURCE was used in the case of antibodies carrying a Kappa chain, and Human Lambda Light Chain Antibody; Goat anti-Human Lambda Light Chain Antibody Alkaline Phosphatase Conjugated from BETHYL LABORATORIES INC. was used in the case of antibodies carrying a Lambda chain. […] Color development was performed using the BluePhos Microwell kit from KPL. After the chromogenic reaction was stopped using the AP stop solution from KPL, the absorbance was measured at 620 nm on an absorptiometer.

CRD3-4 [2] = biological target: T1, CRD3-4; experiment: as above
T1 construct: also called fragmented human CD137-Fc fusion protein CRD3-4
T1 sequence (chain, as listed by the source limits assumed): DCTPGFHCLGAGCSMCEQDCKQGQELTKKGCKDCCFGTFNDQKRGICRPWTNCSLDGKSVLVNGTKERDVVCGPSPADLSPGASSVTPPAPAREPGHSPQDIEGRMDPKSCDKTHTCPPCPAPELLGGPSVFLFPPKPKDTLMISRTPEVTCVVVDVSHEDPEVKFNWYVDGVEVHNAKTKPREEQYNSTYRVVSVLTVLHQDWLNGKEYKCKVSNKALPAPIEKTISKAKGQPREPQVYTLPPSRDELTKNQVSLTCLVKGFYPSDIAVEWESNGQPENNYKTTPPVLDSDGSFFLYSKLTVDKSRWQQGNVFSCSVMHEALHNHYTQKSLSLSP
Description: as §1

CRD1-3 [3] = biological target: T2, CRD1-3; experiment: as above
T2 construct: also called fragmented human CD137-Fc fusion protein CRD1-3
T2 sequence (chain, as listed by the source limits assumed): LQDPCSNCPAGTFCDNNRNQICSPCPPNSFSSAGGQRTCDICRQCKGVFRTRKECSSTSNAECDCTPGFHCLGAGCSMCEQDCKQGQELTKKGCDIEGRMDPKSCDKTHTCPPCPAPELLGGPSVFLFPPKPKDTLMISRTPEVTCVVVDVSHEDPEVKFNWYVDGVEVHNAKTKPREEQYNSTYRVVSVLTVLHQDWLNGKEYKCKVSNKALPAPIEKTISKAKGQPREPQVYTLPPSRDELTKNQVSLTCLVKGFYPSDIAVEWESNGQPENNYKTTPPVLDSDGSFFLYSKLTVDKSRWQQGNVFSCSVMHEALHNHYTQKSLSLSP
Description: as §1

CRD2-4 [4] = biological target: T3, CRD2-4; experiment: as above
T3 construct: also called fragmented human CD137-Fc fusion protein CRD2-4
T3 sequence (chain, as listed by the source limits assumed): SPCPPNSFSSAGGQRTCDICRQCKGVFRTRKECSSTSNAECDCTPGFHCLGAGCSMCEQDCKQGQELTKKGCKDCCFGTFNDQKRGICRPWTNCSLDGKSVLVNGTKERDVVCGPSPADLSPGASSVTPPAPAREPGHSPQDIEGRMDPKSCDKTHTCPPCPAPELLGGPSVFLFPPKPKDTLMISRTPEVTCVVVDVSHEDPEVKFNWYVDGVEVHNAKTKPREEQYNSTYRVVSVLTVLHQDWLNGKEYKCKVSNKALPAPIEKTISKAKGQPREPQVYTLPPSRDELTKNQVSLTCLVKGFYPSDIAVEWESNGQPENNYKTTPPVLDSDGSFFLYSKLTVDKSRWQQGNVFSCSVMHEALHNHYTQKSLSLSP
Description: as §1

CRD2-3 [5] = biological target: T4, CRD2-3; experiment: as above
T4 construct: also called fragmented human CD137-Fc fusion protein CRD2-3
T4 sequence (chain, as listed by the source limits assumed): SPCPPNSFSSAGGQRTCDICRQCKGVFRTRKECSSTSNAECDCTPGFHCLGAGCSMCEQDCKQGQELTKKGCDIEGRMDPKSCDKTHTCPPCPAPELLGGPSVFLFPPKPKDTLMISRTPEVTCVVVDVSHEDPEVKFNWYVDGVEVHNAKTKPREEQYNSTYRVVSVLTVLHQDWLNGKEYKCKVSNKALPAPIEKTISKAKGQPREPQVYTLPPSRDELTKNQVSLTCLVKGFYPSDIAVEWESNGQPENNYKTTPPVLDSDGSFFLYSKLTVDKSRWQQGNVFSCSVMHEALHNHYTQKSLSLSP
Description: as §1

CRD1-2 [6] = biological target: T5, CRD1-2; experiment: as above
T5 construct: also called fragmented human CD137-Fc fusion protein CRD1-2
T5 sequence (chain, as listed by the source limits assumed): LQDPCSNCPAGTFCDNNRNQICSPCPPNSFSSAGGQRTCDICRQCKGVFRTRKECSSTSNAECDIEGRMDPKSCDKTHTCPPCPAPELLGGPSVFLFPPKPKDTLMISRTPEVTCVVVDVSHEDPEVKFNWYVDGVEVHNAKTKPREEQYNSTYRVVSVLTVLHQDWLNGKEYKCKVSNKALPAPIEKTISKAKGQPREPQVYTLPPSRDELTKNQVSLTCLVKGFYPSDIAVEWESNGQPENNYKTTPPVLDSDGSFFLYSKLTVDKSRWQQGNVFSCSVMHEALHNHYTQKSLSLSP
Description: as §1

CRD1 [7] = biological target: T6, CRD1; experiment: as above
T6 construct: also called fragmented human CD137-Fc fusion protein CRD1
T6 sequence (chain, as listed by the source limits assumed): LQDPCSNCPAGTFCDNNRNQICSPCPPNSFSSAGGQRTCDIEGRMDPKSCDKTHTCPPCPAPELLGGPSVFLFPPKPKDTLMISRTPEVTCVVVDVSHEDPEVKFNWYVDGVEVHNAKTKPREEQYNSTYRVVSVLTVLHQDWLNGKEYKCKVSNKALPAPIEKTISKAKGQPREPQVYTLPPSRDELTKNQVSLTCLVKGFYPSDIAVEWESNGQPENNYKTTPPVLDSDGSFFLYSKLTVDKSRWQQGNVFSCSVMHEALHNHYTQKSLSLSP
Description: as §1

[8] = biological target: full-length human CD137-Fc fusion protein (human); experiment: ELISA, coated CD137-Fc protein 2 µg/mL, antibody 10 or 5 µg/mL, absorbance 620 nm; Non (uncoated well) 0.1705
Description: as §1

CRD3-4 [9] = biological target: T1, CRD3-4; experiment: as above
Description: as §1

CRD1-3 [10] = biological target: T2, CRD1-3; experiment: as above
Description: as §1

CRD2-4 [11] = biological target: T3, CRD2-4; experiment: as above
Description: as §1

CRD2-3 [12] = biological target: T4, CRD2-3; experiment: as above
Description: as §1

CRD1-2 [13] = biological target: T5, CRD1-2; experiment: as above
Description: as §1

CRD1 [14] = biological target: T6, CRD1; experiment: as above
Description: as §1

[15] = biological target: full-length human CD137-Fc fusion protein (human); experiment: ELISA, coated CD137-Fc protein 2 µg/mL, antibody 10 or 5 µg/mL, absorbance 620 nm; Non (uncoated well) 0.3465
Description: as §1

CRD3-4 [16] = biological target: T1, CRD3-4; experiment: as above
Description: as §1

CRD1-3 [17] = biological target: T2, CRD1-3; experiment: as above
Description: as §1

CRD2-4 [18] = biological target: T3, CRD2-4; experiment: as above
Description: as §1

CRD2-3 [19] = biological target: T4, CRD2-3; experiment: as above
Description: as §1

CRD1-2 [20] = biological target: T5, CRD1-2; experiment: as above
Description: as §1

CRD1 [21] = biological target: T6, CRD1; experiment: as above
Description: as §1

[22] = biological target: full-length human CD137-Fc fusion protein (human); experiment: ELISA, coated CD137-Fc protein 2 µg/mL, antibody 10 or 5 µg/mL, absorbance 620 nm; Non (uncoated well) 0.166
Description: as §1

CRD3-4 [23] = biological target: T1, CRD3-4; experiment: as above
Description: as §1

CRD1-3 [24] = biological target: T2, CRD1-3; experiment: as above
Description: as §1

CRD2-4 [25] = biological target: T3, CRD2-4; experiment: as above
Description: as §1

CRD2-3 [26] = biological target: T4, CRD2-3; experiment: as above
Description: as §1

CRD1-2 [27] = biological target: T5, CRD1-2; experiment: as above
Description: as §1

CRD1 [28] = biological target: T6, CRD1; experiment: as above
Description: as §1

[29] = biological target: full-length human CD137-Fc fusion protein (human); experiment: ELISA, coated CD137-Fc protein 2 µg/mL, antibody 10 or 5 µg/mL, absorbance 620 nm; Non (uncoated well) 0.065
Description: as §1

CRD3-4 [30] = biological target: T1, CRD3-4; experiment: as above
Description: as §1

CRD2-4 [31] = biological target: T3, CRD2-4; experiment: as above
Description: as §1

CRD2-3 [32] = biological target: T4, CRD2-3; experiment: as above
Description: as §1

CRD1-2 [33] = biological target: T5, CRD1-2; experiment: as above
Description: as §1

CRD1 [34] = biological target: T6, CRD1; experiment: as above
Description: as §1

Chain of full-length human CD137-Fc fusion protein (human) (chain, as listed by the source limits assumed): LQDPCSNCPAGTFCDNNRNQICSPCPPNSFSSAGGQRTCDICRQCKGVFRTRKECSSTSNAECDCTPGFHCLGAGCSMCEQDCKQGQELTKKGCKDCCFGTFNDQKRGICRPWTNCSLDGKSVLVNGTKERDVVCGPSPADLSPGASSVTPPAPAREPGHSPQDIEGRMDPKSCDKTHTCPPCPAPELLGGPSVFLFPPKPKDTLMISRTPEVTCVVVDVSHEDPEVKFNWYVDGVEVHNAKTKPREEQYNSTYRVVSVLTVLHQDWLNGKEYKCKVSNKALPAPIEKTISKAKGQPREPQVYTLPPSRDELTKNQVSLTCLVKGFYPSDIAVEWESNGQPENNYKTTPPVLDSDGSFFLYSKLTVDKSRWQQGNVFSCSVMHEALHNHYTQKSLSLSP

B1: R16 (antibody, V domains shown)
VH: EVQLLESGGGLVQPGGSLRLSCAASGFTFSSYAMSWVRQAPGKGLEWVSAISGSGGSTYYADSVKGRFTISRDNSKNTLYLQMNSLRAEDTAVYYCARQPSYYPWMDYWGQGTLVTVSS
VL: DIQMTQSPSSLSASVGDRVTITCRASQSISSYLNWYQQKPGKAPKLLIYAASSLQSGVPSRFSGSGSGTDFTLTISSLQPEDFATYYCQQFNNYPLTFGGGTKVEIK
notes: Synthetic library clone; Fab on phage in the phage ELISA
[1]
  Ratio with respect to Non-Coating: 11.3
CRD3-4 [2]
  Ratio with respect to Non-Coating: 15.4
CRD1-3 [3]
  Ratio with respect to Non-Coating: 13.1
CRD2-4 [4]
  Ratio with respect to Non-Coating: 12.7
CRD2-3 [5]
  Ratio with respect to Non-Coating: 14.9
CRD1-2 [6]
  Ratio with respect to Non-Coating: 1.6
CRD1 [7]
  Ratio with respect to Non-Coating: 1.7
[8]
  ELISA color development level: 1.93
CRD3-4 [9]
  ELISA color development level: 2.63
CRD1-3 [10]
  ELISA color development level: 2.24
CRD2-4 [11]
  ELISA color development level: 2.17
CRD2-3 [12]
  ELISA color development level: 2.54
CRD1-2 [13]
  ELISA color development level: 0.269
CRD1 [14]
  ELISA color development level: 0.286

B2: R18 (antibody, V domains shown)
VH: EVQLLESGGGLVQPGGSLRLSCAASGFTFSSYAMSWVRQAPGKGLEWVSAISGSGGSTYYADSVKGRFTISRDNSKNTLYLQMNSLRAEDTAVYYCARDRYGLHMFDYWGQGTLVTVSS
VL: DIQMTQSPSSLSASVGDRVTITCRASQSISSYLNWYQQKPGKAPKLLIYAASSLQSGVPSRFSGSGSGTDFTLTISSLQPEDFATYYCLQFNSFPLTFGGGTKVEIK
notes: as for B1
[15]
  ELISA color development level: 2.03
CRD3-4 [16]
  ELISA color development level: 2.65
CRD1-3 [17]
  ELISA color development level: 2.29
CRD2-4 [18]
  ELISA color development level: 2.27
CRD2-3 [19]
  ELISA color development level: 2.49
CRD1-2 [20]
  ELISA color development level: 0.419
CRD1 [21]
  ELISA color development level: 0.4
[1]
  Ratio with respect to Non-Coating: 5.8
CRD3-4 [2]
  Ratio with respect to Non-Coating: 7.7
CRD1-3 [3]
  Ratio with respect to Non-Coating: 6.6
CRD2-4 [4]
  Ratio with respect to Non-Coating: 6.6
CRD2-3 [5]
  Ratio with respect to Non-Coating: 7.2
CRD1-2 [6]
  Ratio with respect to Non-Coating: 1.2
CRD1 [7]
  Ratio with respect to Non-Coating: 1.2

B3: R17 (antibody, V domains shown)
VH: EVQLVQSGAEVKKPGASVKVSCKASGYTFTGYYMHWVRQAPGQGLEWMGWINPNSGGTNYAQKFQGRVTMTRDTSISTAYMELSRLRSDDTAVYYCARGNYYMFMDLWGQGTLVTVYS
VL: DIQMTQSPSSLSASVGDRVTITCRASQSISSYLNWYQQKPGKAPKLLIYAASSLQSGVPSRFSGSGSGTDFTLTISSLQPEDFATYYCLQFTSFPLTFGGGTKVEIK
notes: as for B1
[1]
  Ratio with respect to Non-Coating: 8.1
CRD3-4 [2]
  Ratio with respect to Non-Coating: 14.9
CRD1-3 [3]
  Ratio with respect to Non-Coating: 12.4
CRD2-4 [4]
  Ratio with respect to Non-Coating: 11.6
CRD2-3 [5]
  Ratio with respect to Non-Coating: 14.7
CRD1-2 [6]
  Ratio with respect to Non-Coating: 1
CRD1 [7]
  Ratio with respect to Non-Coating: 1.2
[22]
  ELISA color development level: 1.34
CRD3-4 [23]
  ELISA color development level: 2.47
CRD1-3 [24]
  ELISA color development level: 2.05
CRD2-4 [25]
  ELISA color development level: 1.92
CRD2-3 [26]
  ELISA color development level: 2.44
CRD1-2 [27]
  ELISA color development level: 0.169
CRD1 [28]
  ELISA color development level: 0.197

B4: R1 (antibody, V domains shown)
VH: EVQLVQSGAEVKKPGASVKVSCKASGYTFTSYYTHWVRQAPGQGLEWMGIINPSGGSTSYAQKFQGRVTMTRDTSTSTVYMELSSLRSEDTAVYYCARGAPEYSSSSDYWGQGTMVTVSS
VL: QSALTQPASVSGSPGQSITISCTGTSSDVGGYNYVSWYQQHPGKAPKLMIYDVSNRPSGVSNRFSGSKSGNTASLTISGLQAEDEADYYCSSYTSSSTRWVFGGGTKLTVL
notes: Naive library clone; Fab on phage in the phage ELISA
[29]
  ELISA color development level: 1.79
CRD3-4 [30]
  ELISA color development level: 0.0875
CRD2-4 [31]
  ELISA color development level: 0.0935
CRD2-3 [32]
  ELISA color development level: 0.117
CRD1-2 [33]
  ELISA color development level: 0.865
CRD1 [34]
  ELISA color development level: 0.123
[1]
  Ratio with respect to Non-Coating: 27.6
CRD3-4 [2]
  Ratio with respect to Non-Coating: 1.3
CRD2-4 [4]
  Ratio with respect to Non-Coating: 1.4
CRD2-3 [5]
  Ratio with respect to Non-Coating: 1.8
CRD1-2 [6]
  Ratio with respect to Non-Coating: 13.3
CRD1 [7]
  Ratio with respect to Non-Coating: 1.9
